In PMC2859858:

Biological target: ProLabel-LEDGF fusion protein (UniProt O75475)
Experiment: chemiluminescent co-IP assay
Conditions: 293T cells, 48 h after transfection; parent: est. 4700; read off a plot

Chain of UniProt O75475 (O75475 whole entry, the tested form may be a part): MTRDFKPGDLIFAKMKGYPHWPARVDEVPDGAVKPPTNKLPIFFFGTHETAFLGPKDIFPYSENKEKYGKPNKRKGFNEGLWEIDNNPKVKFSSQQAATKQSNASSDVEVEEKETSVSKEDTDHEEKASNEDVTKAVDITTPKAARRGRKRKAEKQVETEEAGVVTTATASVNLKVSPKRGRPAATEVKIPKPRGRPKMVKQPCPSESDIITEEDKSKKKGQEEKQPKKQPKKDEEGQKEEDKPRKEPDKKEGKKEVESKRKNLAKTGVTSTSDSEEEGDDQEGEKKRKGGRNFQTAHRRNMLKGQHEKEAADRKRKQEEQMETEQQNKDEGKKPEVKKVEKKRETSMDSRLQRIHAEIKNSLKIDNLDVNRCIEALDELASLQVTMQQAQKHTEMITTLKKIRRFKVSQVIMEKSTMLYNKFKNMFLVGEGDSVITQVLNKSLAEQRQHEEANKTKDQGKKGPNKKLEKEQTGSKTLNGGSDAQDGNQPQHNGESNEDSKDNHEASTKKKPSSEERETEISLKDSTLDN

| Substance | response |
| --- | --- |
| AcGFP1-IN wild type E170A; H171A | 50 RLU |
| AcGFP1-IN wild type E170A; K173A | 1300 RLU |
| AcGFP1-IN wild type H171A; K173A | 250 RLU |
| AcGFP1-IN wild type H171A; L172A | 130 RLU |
